Experimental data: US20240279290A1
“And” between values parts separate entries of the source, which are not always exact repeats. Equal entries are not always repeated.

Biological target: human CD40 on primary human B cells or monocyte-derived dendritic cells (human) (UniProt P25942)
Assay: cell-based or functional assay

human CD40 on primary human B cells or monocyte-derived dendritic cells (human), sequence (P25942 21-277 H80K/K81H limits assumed): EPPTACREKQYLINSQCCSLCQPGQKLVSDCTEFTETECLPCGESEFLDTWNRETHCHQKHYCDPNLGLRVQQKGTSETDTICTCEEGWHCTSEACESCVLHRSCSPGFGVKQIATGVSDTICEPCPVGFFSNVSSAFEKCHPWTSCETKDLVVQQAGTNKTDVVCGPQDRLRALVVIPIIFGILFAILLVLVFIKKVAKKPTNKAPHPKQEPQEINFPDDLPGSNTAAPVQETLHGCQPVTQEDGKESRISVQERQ

EC50 [nM], % CD86, human B cells + FAP-CHO, w HSA: 0.88 nM and 0.3 nM
EC50 [nM], % CD86, human B cells + FAP-CHO, w/o HSA: 1.9 nM and 0.51 nM
EC50 [nM], MFI CD86, human B cells + FAP-CHO, w HSA: 0.51 nM and 2.05 nM
EC50 [nM], MFI CD86, human B cells + FAP-CHO, w/o HSA: 1.13 nM and 4.73 nM
Efficacy [MFI at highest dose], MFI CD86, human B cells + FAP-CHO, w HSA: 1530 MFI and 1870 MFI
Efficacy [MFI at highest dose], MFI CD86, human B cells + FAP-CHO, w/o HSA: 1340 MFI and 2060 MFI
Efficacy [MFI at highest dose], MFI CD86, human B cells + WT-CHO (no FAP), w HSA: 1900 MFI and 1470 MFI
Efficacy [MFI at highest dose], MFI CD86, human B cells + WT-CHO (no FAP), w/o HSA: 2050 MFI and 1390 MFI
Substance: anti-CD40 monoclonal antibody corresponding to sequence 21.4.1 of U.S. Pat. No. 7,338,660 B2
